What all share (assay): BLI, IgG
In general terms: Biolayer interferometry detects binding as a change in optical thickness at a sensor tip.

For experiment [1], the target named is T1, RSV postfusion F (postF), subtype A (respiratory syncytial virus, subtype A, UniProt P03420 26-513).
T1 construct: also called F ΔFP; Postfusion subtype A

Experiment [2] concerns the target RSV prefusion F (preF), subtype B (respiratory syncytial virus, subtype B).
Experiment [3] has as its target RSV prefusion F (preF), subtype A (respiratory syncytial virus, subtype A, UniProt P03420 26-513).

Numbering of substitutions follows the chain as printed.

B1: ADI-21014 (antibody, V domains shown)
VH: QVQLQESGPGLVKPSETLSLICTVSGGSISNYYWSWIRQPPGKGLEWIGYVWFGTTKYNPSLKNRVTISVDTGKNQVSLKVNSVTAADTAIYYCARDSSIWYRGAFEIWGQGTTVTVSS
VL: DIRLTQSPSSLSASVGDRVTITCQASQDISNHLNWYQQRPGKAPELLIYDASTLETGGPSRFSGSGSGTDFTLTISSLQPEDFADYYCQQYDNLPVTFGGGTKVDIK
B1: the binding result in experiment [1] is reported as “no binding”. The Kd in experiment [2] is 0.378 nM; in experiment [3] it was 0.408 nM.

B2: ADI-20983 (antibody, V domains shown)
VH: EVQLVESGGALVQPGGSLRLSCSASGFTFSSYAMHWVRQAPGKGLEYVSAINNFGDKTYYTDSVEGRFTISRDNSKKTLYLQMSSLRPEDTAVYYCVKDRGYCSSPSCYAVPYYYFYGMDVWGQGTTVTVSS
VL: EIVMTQSPSSLSASVGDRVTITCQASQGISNYLHWYQQKPGKAPKLLIYDASNLEAGVPSRFSGSGAGTDFTFTISSLQPEDVATYYCQHYNNLPFTFGPGTKVDIK
As to B2, the Kd in experiment [1] worked out at 2.05 nM; in experiment [2], 1.17 nM; in experiment [3], 0.213 nM.

B3: ADI-20992 (antibody, V domains shown)
VH: EVQLVESGGGLVQPGGSLRLSCVVSGFTFKSYWMTWVRQAPGKGLEWVANIKEDGSEKYYVDSVKGRFTISRDNARNSLFLQMNSLRADDTAVYYCARNLEVSNEFYVVTDNYYLMDVWGQGTTVTVSS
VL: DIQLTQSPSSLSASVGDRVTITCRASQSISFFLNWYRQKPGKAPKLLIYAASTLQSGVPSRFSGSGSGTDFTLTISSLQPEDFASYYCQQSYSTPHTFGQGTKVEIK
Consider B3, for which the binding result in experiment [1] is given as “no binding”. The Kd is 1.22 nM in experiment [2] and 0.956 nM in experiment [3].

B4: ADI-21023 (antibody, V domains shown)
VH: EVQLVESGGGLVKPGGSLRLSCAASGFRFSSYGMHWVRQAPGRGLEWVSSITAGSSYMDYADSVKGRFSISRDNAKTSLYLQMNSLRAEDTAIYYCARENYDTGRGLNWFDPWGQGTLVTVSS
VL: QSVVTQPPSVSGAPGQRVTISCTGSSSNIGAGYDVHWYRQLPGTAPEVLIYGNNNRPSGVPDRFSGSKTGTSASLAITGLLAEDGADYYCQSYDRSQLWVFGGGTQLTVP
Turning to B4, the binding result in experiment [1] is recorded as “no binding”. The Kd in experiment [2] is 0.316 nM; in experiment [3], 0.264 nM.

B5: ADI-20982 (antibody, V domains shown)
VH: EVQLVESGPGLVKPSQTLSLTCSVSGVSISRGSYYWSWIRQPAGGGLEWIGRIYTSGVTRYNPSLESRVTISLDSSQNQFFLRLSSVTAADTAVYYCATRESASYSSGPDAFDIWGQGTTVTVSS
VL: DIQMTQSPSTLSASVGDRVIITCRASQSVNSWLAWYQQKPGKAPKLLIYQASSLESGVPSRFSGSGSGTEFTLTINSLQPDDFATYYCQQYKTFSRPFGQGTKVEIK
On to B5, for which the binding result in experiment [1] was “no binding”. The figures for the Kd in experiment [2] and in experiment [3] were 5.45 nM and 4.88 nM, respectively.

B6: ADI-21032 (antibody, V domains shown)
VH: EVQLVESGGGLVKPGGSLRLSCAVSGFKFSSYTMNWVRQAPGKGLEWVSSVSASSSYIFYADSVQGRFIISRDNAQNSLYLQMNSLRADDTAVYYCTRDQYGPGHYYNPAWFDPWGQGTLVTVSS
VL: QPVLTQPPSASGAPGQRVTISCTGSSSNIGAGYDVHWYQQLPGTAPKVLIYGNTNRPSGIPDRFSGSKSGTSASLAIIGLQAEDEADYYCQSYDRNGSKVFGTGTKLTVL
notes: also called Ab 280
Turning to B6, in experiment [1], the binding result was “no binding”. For the same molecule, the figures for the Kd in experiment [2] and in experiment [3] were 0.344 nM and 0.296 nM, respectively.

B7: ADI-20979 (antibody, V domains shown)
VH: EVQLQESGPGLVKPSETLSLTCTVSGGSLRSYYWSWIRQPPGKGLEWIGNIYYGGSTNYNSSLKGRVTISIDTSKNQFSLRLSSVTAADTAVYYCARDGLFPMGEWDYWGQGILVTVSS
VL: QSALTQPASVSGSPGQSITISCTGTSNDVGDYNYVSWYQQHPGEAPKLMIYEVTNRPSGVSDRFSGSKSGNTASLTISGLQAEDEADYYCSSYTSSTSVVFGGGTQLTVL
notes: also called Ab 232
With B7, in experiment [1], the binding result is listed as “no binding”. Further, the Kd in experiment [2] came to 4 nM; in experiment [3] it was 0.979 nM.

B8: ADI-20973 (antibody, V domains shown)
VH: EVQLLESGGGLVKPAGSLRLSCAASGFSFSSYYMNWIRQAPGKGLEWVSDISGGSSYTNYADSVKGRFTVSRDNAKNSVYLQMNSLRGEDTAVYYCARGASTAATYTPTFDYWGQGILVTVSS
VL: QPVLTQPPSVSGAPGQRVTISCTGSSSNIGAGYDVHWYQQLPGTAPKLLMFGNNNRPSGVPDRFSGSKSGTSASLAITGLRPEDEADYYCQSYDRRLTVVFGGGTKLTVL
As to B8, the binding result in experiment [1] is given as “no binding”. In addition, the Kd in experiment [2] worked out at 0.417 nM; in experiment [3], 0.308 nM.

B9: ADI-20974 (antibody, V domains shown)
VH: EVQLVESGGGLVKPGGSLRLSCAASGFSFSSYQINWVRQAPGKGLEWVSSISGGSSYTDYADSIKGRFTISRDNAKKSAFLQMKSLRADDTAVYYCARALMATAGGLAFDIWGQGTMVTVSS
VL: B8 VL with S26G, L41V, M50I, F51L, G52R, N54T, R81Q, P82A, R96S, T98S
On to B9, for which the binding result in experiment [1] was “no binding”. The Kd in experiment [2] was 0.36 nM; in experiment [3], 0.291 nM.

B10: ADI-20986 (antibody, V domains shown)
VH: EVQLVESGGGLVQPGGSLRLSCVASGFTFSNYWMNWVRQAPGKGLEWVANIKEDGSEIKYVDSVKGRFTISRDNAKNSLYLQMNSLRAEDTAVYYCARTEDSSSWFVAIDYYNYMDVWGKGTTVTVSS
VL: DIQVTQSPGTLSLSPGERATLSCRASQTVSSSYLAWYQQKPGQAPRLLFYGASSRATDIPDRFSASGSGTDFTLTIHRLEPEDFAVYYCQLYGRSPPYTFGQGTKVEIK
With B10, the binding result in experiment [1] is on record as “no binding”. The Kd turned out to be 1.25 nM in experiment [2] and 0.414 nM in experiment [3].

B11: ADI-20988 (antibody, V domains shown)
VH: EVQLVESGGEVKKPGASVKVSCKTSGYPFSNYGISWMRLAPGQGLEWMGWISSYNGNTYYTKKFQGRVSMTTDTSTSTAYMELRSLRSDDTAVYYCARDVPVIAAHTFEYWGQGTLVTVSS
VL: ETTLTQSPLSLPVTLGQPASISCRSSESLVYSDGNTYLSWFQQRPGQSPRRIIYKVSNRDSGVPDRFSGSGSGTDFTLKISRVEAEDVGVYYCMQATHWPRDTFGQGTKVDIK
notes: also called Ab 240
As to B11, the binding result in experiment [1] is listed as “no binding”. Besides, the results for the Kd in experiment [2] and in experiment [3] were 1.29 nM and 0.294 nM, respectively.

B12: ADI-20991 (antibody, V domains shown)
VH: EVQLVESGGNLVKPGGSLRLSCAASGFTFSGYYMSWIRQAPGKGLEWISDISGGSSYTNYADSVKGRFTISRDNAKNSLYLQMNSLRAEDTAMYYCARVEYDTTGPFHFDYWGQGTLVTVSS
VL: QPVLTQPPSVSGAPGQRVTISCTGSSSNIGAGYDVHWYQQLPGTAPKLLIYGNNNRPSGVPDRLSGSKSGTSASLAITGLQAEDEADYYCQSYDSSLSGYVFGTGTKVTVL
For the molecule B12, the binding result in experiment [1] was “no binding”. Further, the Kd was determined as 0.258 nM in experiment [2] and 0.234 nM in experiment [3].

B13: ADI-21025 (antibody, V domains shown)
VH: EVQLVESGGGLVRPGGSLRLSCEASGLKLSGYSMNWVRQAPGKGLEWVSSISASSSYIHYADSLKGRFTISRDNAKNSLYLQMNSLRAEDTAVYYCVASWLTPGWFDPWGQGTLVTVSS
VL: B12 VL with R17T, N54T, L64F, I77V, A86G, Y100S, V101A, T104G, V108L
B13: the binding result in experiment [1] is “no binding”. In addition, the Kd in experiment [2] was found to be 0.295 nM; in experiment [3] it was 0.242 nM.

B14: ADI-20971 (antibody, V domains shown)
VH: EVQLVESGGGLVKPGESLRLSCAASGFTFSDYSMTWIRQAPGKGLLEWIAYINSQSNYMDYADSVKGRFTISRDNAKNSLYLQMNGLRADDTAVYFCARDRRTFVAATLGWFDPWGQGTLVTVSS
VL: ETTLTQSPATLSVSPGERATLSCRASQSVSNNVAWYQQKPGQAPRVLIYAASTRATGIPARFSGSESGTEFTLTISSLQSEDFAVYYCQQYNNWPRTFGQGTKLEIK
On to B14, for which, in experiment [1], the binding result is on record as “no binding”. The Kd in experiment [2] was found to be 0.544 nM; in experiment [3], 0.333 nM.

B15: ADI-21017 (antibody, V domains shown)
VH: QVQLVESGTEVKKPGASVKVSCKASGYTFTNYGITWVRQAPGQGLEWMGCISGYNGNTNYAQNLQGRVTMTTDTSTNTAYMELRSLISDDTAVYYCARDTGLTAAALLDYWGQGTLVTVSS
VL: DIVLTQSPLSLPVTLGQPASISCRSSQSLVYSDGNTYLSWFQQRPGQSPRRLIYKVSNRDSGVPDRFGGSGSGTYFTLKISRVEAEDVGIYYCMQAIHWPLTFGGGTKVEIK
As to B15, the binding result in experiment [1] is on record as “no binding”. Further, the Kd in experiment [2] was found to be 1.56 nM; in experiment [3], 0.305 nM.

B16: ADI-20970 (antibody, V domains shown)
VH: EVQLLESGGGLVKPGGSLRLSCAVSGFSFSNAWMSWVRQAPGKGLEWVGRIRSKTDGGTTDYAAPVKGRFTISRDDSKNTLYLQMNSLKTEDTAVYYCTTAPRYSTSWYPGYYYYYYMDVWGKGTTVTVSS
VL: DIQMTQSPSSLSASVGDRVTITCQASQDINFYLNWYQQKPGKAPKLLIYDASNLETGVPSRFSGSVSGTDFTFTISSLQPEDFATYYCQQYDDLPAFGGGTKVEIK
Take B16: the binding result in experiment [1] is given as “no binding”. Besides, the Kd in experiment [2] is 2.55 nM; in experiment [3] it was 1.83 nM.

B17: ADI-20999 (antibody, V domains shown)
VH: QVQLQESGPVLVKPSETLSLTCTVSGGSITSSAYYWGWIRQPPGKGLEWIGSVSYSGTTSYTPSLKSRVTISGDASKEQFSLNLRSVTAADTAVYYCARQTKAFGRRDYGMDVWGQGTTVTVSS
VL: QPVLTQPPSVSAAPGQKVTISCSGSNSNIGSNFVSWYQQLPGTAPKLLIYENNKRPSGIPDRFSGSKSGPSATLGITGLQTEDEADYYCGTWDTGLSAHWVFGGGTKLTVL
notes: also called Ab 250
Turning to B17, the binding result in experiment [1] is on record as “no binding”. Moreover, the equilibrium dissociation constant (Kd) was 24.1 nM in experiment [2] and 4.16 nM in experiment [3].

B18: ADI-21021 (antibody, V domains shown)
VH: QVQLQQWGAGLLKPSETLSLTCAVHGGSFSGFYWSWIRQSPGKGLEWIAEINDSGNTNHNPSLKSRVTISIDTSKNQFSLNVSSVTAADTAVYYCAKNGGGHHYVGTLRFRSRAFDIWGQGTMVTVSS
VL: EIVMTQSPSTLSASVGDRVTITCRASQSIGNRLAWYQQKPGKAPKLLISLASGLETGVPSRFSGSGSGTEFTLTITSLQPDDFATYYCQQYSSYGTFGQGTKLEIK
notes: also called Ab 270
As for B18, the binding result in experiment [1] was “no binding”. Further, the results for the Kd in experiment [2] and in experiment [3] were 4.5 nM and 2.55 nM, respectively.

Broadly, the Kd is a measure of binding affinity in units of concentration. Higher therefore signals weaker binding.

(Values after patent US20260258115A1 (MAPP BIOPHARMACEUTICAL, published 2026).)
